# Test results taken from patent publication US10444224B2, “Method for RNA detection and quantification” (Cornell University, priority 2011, dated 2019).
# Entries after “also recorded” stand apart in the source; their conditions may differ.
# Key:
# [1] = test system: endogenous SAM levels in living E. coli cells; test: Live cell imaging of SAM accumulation with the SAM sensor; type: cell-based; details: 50 μg/ml methionine plus inhibitor (25 μM adenosine periodate or 2.5 μM MT-DADMe-ImmA)
# Procedure: Expression of the SAM aptamer and intracellular imaging was performed as described above for the ADP sensor: BL21-A Star E. coli cells (Invitrogen) were transformed with 40 ng of plasmid DNA expressing the tRNA-sensor chimeras in pET28c under the control of a T7 promoter. Cells were plated, grown overnight and single colonies were picked for inoculation in LB-Kan. At OD600=0.4, 1 mM of IPTG was added to the culture and shaking was continued at 37° C. for more 2 hours. 100 μL of culture was then removed, spun down to pellet the culture, and resuspended in 2 mL of pH 6.0 M9 minimal media. A 200 μl aliquot of resuspended culture was then plated on PLL-coated 24-well glass-bottom dishes (MatTek) and incubated for 45 minutes at 37° C. Adherent cells were washed twice and then incubated with 200 μM DFHBI in pH 6.0 M9 minimal media for 2 hours at 37° C. Cells were then treated with methionine alone or methionine with inhibitors by adding 2 μl of a 100× stock of the compound to a final concentration of 50 μg/ml for L-methionine, 25 μM for adenosine periodate, and 2.5 μM for MT-DADMe-ImmA. Live fluorescence images were taken with a CoolSnap HQ2 CCD camera through a 60× oil objective mounted on a Nikon TE2000 microscope and analyzed with the NIS-Elements software. The filter set used was a sputter coated filter cube with excitation filter 470/40, dichroic mirror 495 (long pass) and emission filter 525/50 (Chroma Technology).
# Cells transformed with SAM sensors were grown overnight in LB-Kan. Cultures were then diluted to OD600=0.1 in 200 mL LB-Kan and grown to OD600=0.4. Cells were then induced for 2 hours with 1 mM IPTG at 37° C. with constant shaking. The entire culture was centrifuged for 5 min at 1,000×g, pellets were resuspended and washed once with M9 media and then resuspended in […] of M9 media containing 200 μM DFHBI and divided into two samples. Methionine (50 μg/ml) or vehicle was then added to either sample and cultures were incubated between 32-37° C. 25 ml aliquots were removed from methionine- and vehicle-treated sample at each time point, centrifuged for 5 min at 1,000×g, and flash frozen in liquid nitrogen. Cells were thawed on ice and lysed by resuspending the pellet in 300 μl of cold 4% perchloric acid. Insoluble material was then pelleted by spinning at 1,000×g for 5 min and the supernatant was transferred to a dialysis spin column with a 10,000 molecular weight cut off (Amicon) and spun at 10,000×g for 10 min at 4° C. A portion of the flow through (50 μl) was then injected on a Zorbax C8 column (Agilent) on an Agilent 1100 HPLC. Samples were loaded and eluted for 15 min with an aqueous buffer containing 3.6% acetonitrile, 40 mM ammonium phosphate, and 5 mM sodium 1-heptanesulfonate which was brought to pH 5.0 with hydrochloric acid. After each sample was eluted, the column was washed with a gradient of 3.6-25% acetonitrile for 30 min prior to the next samples being injected. SAM standards were used to calibrate SAM levels measured using this assay.
# Population analysis was carried out using NIS-Elements software. Individual cells in a captured field were manually traced as Region of Interests (ROIs) and tracked through the different time points of image capture. Fluorescence intensity was then calculated by dividing the total fluorescence by the area for each ROI, which gives the mean intensity per unit area. Fold increase in fluorescence over time is calculated as the ratio of mean intensity at a desired time point and at time zero. Values in fold increase in fluorescence over time are plotted as frequency distributions or further used in statistical analyses.
# [2] = Emission and excitation of aptamer-DFHO complexes; type: physicochemical; details: aptamer with DFHO
# [3] = Relative fluorescence of Spinach derivatives compared to Spinach; type: biochemical; details: same concentration of DFHBI in all samples
# Text: Further modifications to Spinach were made in the same manner as described in Example 3, supra. These included modifications to the central loop, the stem formed between 5′ and 3′ ends, as well as stem-loops 1, 2, and 3. FIG. 17 illustrates the RNA sequences and secondary structures of Spinach (SEQ ID NO: 10), and five derivatives thereof, which are designated Spinach-2 (SEQ ID NO: 12), Spinach-4 (SEQ ID NO: 13), Spinach-6 (SEQ ID NO: 14), Spinach-7 (SEQ ID NO: 15), and Spinach-13 (SEQ ID NO: 11). RNA structure is shown as predicted by Mfold web-based software (Zuker, “Mfold Web Server for Nucleic Acid Folding and Hybridization Prediction,” Nucl. Acids Res. 31(13): 3406-3415 (2003), which is hereby incorporated by reference in its entirety). Substitutions present in the derivatives, relative to Spinach, are shown with a box formed around the base.
# FIG. 18 is a graph illustrating the relative fluorescence of the Spinach derivatives compared to Spinach. In all samples shown, the same concentration of DFHBI, the Spinach-binding fluorophore, was included. […] In contrast, modifications to the 5′ and 3′ stem formation, the central loop, and stem-loop 2 were either tolerated or led to much improved fluorescence.
# [4] = Emission and excitation of aptamer-MFHO complexes; type: physicochemical; details: aptamer with MFHO
# [5] = Spinach-based RNA sensor fluorescence in response to GTP; type: biochemical
# Procedure: Dose-response curves for each sensor in response to the target metabolite were determined by measuring the increase in fluorescence as a function of increasing target concentration in the presence of a fixed concentration of RNA sensor (10-50 nM) and a fixed concentration of fluorophore (10 μM). Curves were determined using a nonlinear regression analysis in Prism software and matched by least squares fitting to a standard dose-response model for 1:1 complexation.
# The optimal sensors were chosen based on their low fluorescence in the absence of metabolite and the relative increase in fluorescence upon binding to the metabolite.
# [6] = Emission and excitation of aptamer-DFAME complexes; type: physicochemical; details: aptamer with DFAME
# [7] = 0.1 μM RNA, 10 μM DFHBI, 1 mM competing molecule
molecule,measurement,setting,value
"CSC[C@H]1CN(Cc2c[nH]c3c(N)ncnc23)C[C@@H]1O [MT-DADMe-ImmA, MT-DADMe-Immucillin-A]",effect on average SAM levels / accumulation versus vehicle,[1],large decrease in the average accumulation of SAM
same,effect on inter-cell variability in SAM levels versus vehicle,[1],retained considerable variability in total SAM levels
same,effect on average SAM levels / accumulation versus vehicle,[1]; listed as Mt-DADMe-ImmA,substantial reduction in average SAM accumulation levels; also recorded: much greater reduction in average SAM accumulation levels
same,effect on inter-cell variability in SAM levels versus vehicle,[1]; listed as Mt-DADMe-ImmA,higher variability in SAM levels; also recorded: increased the variability in SAM levels
"SEQ ID NO: 51: RNA aptamer listed for fluorophore DFHO (nucleic acid, listed as RNA, chemistry not given here) GGGAGACGCAACUGAAUGAAGUUGGCCCAUGAUAGAAAGCAGGGUGCUGCUUCGGCAGUUGUCGGAGGGUGGGGGGAUUGACUAUCCGUAACUAGUCGCGUCAC",Em,[2],Em = 550 nm
same,Ex,[2],Ex = 480 nm
"Spinach-13: derivative of Spinach (nucleic acid, listed as RNA, chemistry not given here) GACGCGACCUAUGAAAUGGUGAAGGGACGGGUCCCAGCGGCUGCUUCGGCAGCCGCUGUUGAGUAGAGUGUGAGCUCCGUAACUGGUCGCGUC",relative fluorescence compared to Spinach,[3],greatly reduced fluorescence
"SEQ ID NO: 56: RNA aptamer listed for fluorophore MFHO (nucleic acid, listed as RNA, chemistry not given here) GGGAGACGCAACUGAAUGAAUGAGUAUGAUGCACGGUUAAAAUCCACUGCUUCGGCAGGAGUUGCGUUAGGAGGGUCGGGAGUCUCCGUAACUAGUCGCGUCAC",Em,[4],Em = 570 nm
same,Ex,[4],Ex = 550 nm
"SEQ ID NO: 52: RNA aptamer listed for fluorophore DFHO (nucleic acid, listed as RNA, chemistry not given here) GGGCGACUCACUAUAGGGAGACGCAACUGAAUGAAGCGAAGAAGGAGGUCUGAGGAGGUCACUGCUUCGGCAGUGGGGCGUUUUCCCUGGGGGUGUUGAUCCGUAACUAGUCGCGUCAC",Em,[2],Em = 540 nm
same,Ex,[2],Ex = 490 nm
"GTP sensor: Spinach-based turn-on RNA sensor for GTP (nucleic acid, listed as RNA, chemistry not given here) GACGCGACUGAAUGAAAUGGUGAAGGACGGGUCCAGCAGAAGAGCACGUAUACGCAAGCUUGUUGAGUAGAGUGUGAGCUCCGUAACUAGUCGCGUC",increase in fluorescence in the presence of GTP,"[5]; 0.1 μM RNA, 10 μM DFHBI, 1 mM GTP, versus no GTP",15 fold
same,molecular discrimination: ATP,[5]; [7],Only baseline fluorescence
same,molecular discrimination: GMP,[5]; [7],"exhibits fluorescence, although to a lesser extent; also recorded: moderate preference for GTP over GMP"
same,molecular discrimination: cGMP and guanosine,[5]; [7],minimal fluorescence; also recorded: tenfold less fluorescence
same,EC50,"[5]; predicted by curve fitting, read-out: half-maximal fluorescence (EC50), GTP",7.7 mM
"Spinach-7: derivative of Spinach (nucleic acid, listed as RNA, chemistry not given here) GACGCGACCGAAUGAAAUGGUGAAGGACGGGUCCAGCCGGCUGCUUCGGCAGCCGGCUUGUUGAGUAGAGUGUGAGCUCCGUAACUGGUCGCGUC",relative fluorescence compared to Spinach,[3],enhanced fluorescence
"SEQ ID NO: 58: RNA aptamer listed for fluorophore DFAME (nucleic acid, listed as RNA, further chemistry not given here) GGGAGACGCAACUGAAUGAAGCCUCCGUGCGACAUCAUGCGCGCGACUGCUUCGGCAGAGGUGGGUGGUGUGGAGGAGUAUCUGUCCGUAACUAGUCGCGUCAC",Em,[6],Em = 610 nm
same,Ex,[6],Ex = 510 nm
"Spinach-4: derivative of Spinach (nucleic acid, listed as RNA, chemistry not given here) GACGCGACCGAAUGAAAUGGUGAAGGACGGGUCCAGCUGCGGCUGCUUCGGCAGCCGCAGCUUGUUGAGUAGAGUGUGAGCUCCGUAACUGGUCGCGUC",relative fluorescence compared to Spinach,[3],enhanced fluorescence
"Spinach-2: derivative of Spinach (nucleic acid, listed as RNA, chemistry not given here) GACGCGACCGAAUGAAAUGGUGAAGGACGGGUCCAGGUGUGGCUGCUUCGGCAGUGCAGCUUGUUGAGUAGAGUGUGAGCUCCGUAACUGGUCGCGUC",relative fluorescence compared to Spinach,[3],comparable fluorescence
"Spinach-6: derivative of Spinach (nucleic acid, listed as RNA, chemistry not given here) GACGCGACCGAAUGAAAUGGUGAAGGACGGGUCCAGGUGUGGCUGCUUCGGCAGUGCAGCUUGUUGCGUCGAGUGUGAGCUCGACGUAACUGGUCGCGUC",relative fluorescence compared to Spinach,[3],greatly reduced fluorescence
"SEQ ID NO: 53: RNA aptamer listed for fluorophore DFHO (nucleic acid, listed as RNA, chemistry not given here) GGGAGACGCAACUGAAUGAAAGACCUGACGAGGGUGAAGCGGUUGUCUGCUUCGGCAGCAUUGAAAGGGUGGGGUGUAGGAUGGUCCGUAACUAGUCGCGUCAC",Em,[2],Em = 560 nm
same,Ex,[2],Ex = 520 nm
"SEQ ID NO: 57: RNA aptamer listed for fluorophore DFAME (nucleic acid, listed as RNA, further chemistry not given here) GGGAGACGCAACUGAAUGAAAGACCUGACGAGGGUGAAGCGGUUGUCUGCUUCGGCAGCAUUGAAAGGGUGGGGUGUAGGAUGGUCCGUAACUAGUCGCGUCAC",Em,[6],Em = 570 nm
same,Ex,[6],Ex = 620 nm
"SEQ ID NO: 54: RNA aptamer listed for fluorophore DFHO (nucleic acid, listed as RNA, chemistry not given here) GGGAGACGCAACUGAAUGAAGCGAGGAAGGAGGUCUGAGGAGGUCACUGCUUCGACAGUGGGGCGUUUUCCCUGGGGGUGUUGAUCCGUAACUAGUCGCGUCAC",Em,[2],Em = 545 nm
same,Ex,[2],Ex = 500 nm
"SEQ ID NO: 55: RNA aptamer listed for fluorophore MFHO (nucleic acid, listed as RNA, chemistry not given here) GGGAGACGCAACUGAAUGAAGCGAGGAAGGAGGUCUGAGGAGGUCACUGCUUCGACAGUGGGGCGUUUUCCCUGGGGGUGUUGAUCCGUAACUAGUCGCGUCAC",Em,[4],Em = 430 nm
same,Ex,[4],Ex = 580 nm
